Measurements reported in patent US20250283063, “NOVEL CRISPR-CAS12I SYSTEMS AND USES THEREOF” (HUIDAGENE THERAPEUTICS (SINGAPORE) PTE. LTD., published 2025).
Changes are numbered by the printed parent chain.

Columns and labels:
xCas12i v5.3 = biological target: T1, xCas12i v5.3 (N243R,D892R); test: cell_activity; PAM TTTG; on-target; conditions: tags: NLS
T1 chain: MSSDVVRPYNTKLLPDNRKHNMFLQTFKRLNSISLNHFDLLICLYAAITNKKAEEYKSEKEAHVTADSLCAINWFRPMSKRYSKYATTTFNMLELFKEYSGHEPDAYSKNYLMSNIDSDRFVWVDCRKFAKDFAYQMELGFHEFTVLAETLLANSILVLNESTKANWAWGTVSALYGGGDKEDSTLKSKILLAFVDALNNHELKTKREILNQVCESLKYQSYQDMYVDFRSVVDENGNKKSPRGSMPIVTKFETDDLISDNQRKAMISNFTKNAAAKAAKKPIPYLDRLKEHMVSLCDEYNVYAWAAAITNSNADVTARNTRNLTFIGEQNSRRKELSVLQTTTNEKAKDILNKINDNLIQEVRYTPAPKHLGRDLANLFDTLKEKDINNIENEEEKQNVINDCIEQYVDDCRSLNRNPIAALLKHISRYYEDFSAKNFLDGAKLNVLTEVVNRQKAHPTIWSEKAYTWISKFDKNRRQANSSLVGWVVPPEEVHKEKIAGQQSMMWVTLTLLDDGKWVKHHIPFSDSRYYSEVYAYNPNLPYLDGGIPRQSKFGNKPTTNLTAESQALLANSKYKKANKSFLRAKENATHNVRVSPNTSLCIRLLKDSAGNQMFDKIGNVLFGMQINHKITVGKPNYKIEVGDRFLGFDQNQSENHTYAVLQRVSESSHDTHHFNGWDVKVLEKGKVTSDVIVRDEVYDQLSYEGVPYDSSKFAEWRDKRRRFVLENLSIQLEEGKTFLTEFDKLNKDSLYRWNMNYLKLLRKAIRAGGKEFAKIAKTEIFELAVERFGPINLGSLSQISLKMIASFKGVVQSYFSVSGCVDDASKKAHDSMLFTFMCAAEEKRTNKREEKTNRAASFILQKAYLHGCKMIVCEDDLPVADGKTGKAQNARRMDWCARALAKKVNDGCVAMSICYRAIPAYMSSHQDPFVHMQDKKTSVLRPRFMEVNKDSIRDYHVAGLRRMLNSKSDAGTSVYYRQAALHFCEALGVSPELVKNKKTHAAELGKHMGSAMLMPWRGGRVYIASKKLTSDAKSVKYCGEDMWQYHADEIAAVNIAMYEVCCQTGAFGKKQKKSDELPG

[1] = biological target: T2, Cas12Max (xCas12i-N243R, v1.1) (N243R); test: cell_activity; PAM TTTG; on-target; conditions: tags: NLS
T2 chain: T1 chain with R892D

B1: TTR.2 crRNA ; TTR ON.1 (ssRNA ; dsDNA)
RNA: AUGACUCAGAAAUGUGUCCCCAGUUGACACUAGAAGGGAUAUACAAAGUGGA
DNA 1: TTTGTAGAAGGGATATACAAAGTGGA
DNA 2: TCCACTTTGTATATCCCTTCTACAAA
activity (xCas12i v5.3): 75.8% | activity [1]: 73.8%
